{
  "source": "patent US20200010841",
  "target": "T1, HFR1^n-131aa-TBPm3 conjugated protein (UniProt Q9FE22)",
  "T1 sequence": "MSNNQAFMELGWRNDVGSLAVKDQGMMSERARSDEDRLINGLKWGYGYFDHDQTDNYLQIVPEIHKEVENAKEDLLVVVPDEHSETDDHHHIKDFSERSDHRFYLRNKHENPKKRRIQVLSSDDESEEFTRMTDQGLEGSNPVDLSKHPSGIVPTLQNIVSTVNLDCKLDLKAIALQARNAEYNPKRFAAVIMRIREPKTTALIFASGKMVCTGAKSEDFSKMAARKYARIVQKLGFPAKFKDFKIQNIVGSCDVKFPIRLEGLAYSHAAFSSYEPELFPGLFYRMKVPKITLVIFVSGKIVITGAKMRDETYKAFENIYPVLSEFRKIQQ",
  "data": [
    {"substance": "COP1^L105A (Constitutive photomorphogenic1 with amino acid mutation Leu to Ala)", "values": [
      {"measurement": "Histochemical GUS staining of post-meiotic anther tapetum, ES transgenic versus F1 [ES x RS]", "result": "no staining was appear in the F1 tapetum of the same anther stage"},
      {"measurement": "Relative expression of BECLIN1 transcript (qRT-PCR) in anther developmental stages of F1 [MS x RS]", "result": "When expression of BECLIN1 was checked in different anther developmental stages, it was found that their expression was abolished"}
    ]}
  ]
}
